Reference: patent US20040097713

Test system: GST-IRS-1 C-terminus fusion protein containing Ser1101
Sequence (chain, as listed by the source): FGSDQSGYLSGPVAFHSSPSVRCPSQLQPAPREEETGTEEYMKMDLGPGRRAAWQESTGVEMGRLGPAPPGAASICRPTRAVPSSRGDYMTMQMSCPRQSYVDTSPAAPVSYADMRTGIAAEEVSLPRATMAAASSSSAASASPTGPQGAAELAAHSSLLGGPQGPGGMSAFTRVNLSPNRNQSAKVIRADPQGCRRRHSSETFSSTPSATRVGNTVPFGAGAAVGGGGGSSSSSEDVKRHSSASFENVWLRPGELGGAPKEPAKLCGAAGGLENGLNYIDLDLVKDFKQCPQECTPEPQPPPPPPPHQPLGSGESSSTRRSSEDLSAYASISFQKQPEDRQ

Substance	in vitro kinase reaction, phosphorylation at Ser1101 by Western blot
Akt kinase, active	The Akt kinase could not effectively phosphorylate IRS-1 at Ser1101, despite the occurrence of this residue within a putative Akt motif
protein kinase C theta, active, purified	PKC theta is the only PKC isoform that robustly phosphorylated the GST-IRS-1 fusion protein substrate at Ser1101
